Measured values published in US20170101455A1.

What was measured:
Insulin receptor [1] = experiment: SPR (BIACORE 3000), insulin receptor immobilised on CM5 chip; Test 2
Insulin receptor [2] = experiment: SPR (BIACORE 3000), insulin receptor immobilised on CM5 chip; Test 5
Insulin receptor [3] = experiment: SPR (BIACORE 3000), insulin receptor immobilised on CM5 chip; Test 4
Insulin receptor [4] = experiment: SPR (BIACORE 3000), insulin receptor immobilised on CM5 chip; Test 3

What does the source list for “Native insulin-immunoglobulin Fc conjugate”?
Kd (Insulin receptor [1]): 781 nM; ka relative to native human insulin (Insulin receptor [1]): 3.9%; kd relative to native human insulin (Insulin receptor [1]): 77.2%; koff (Insulin receptor [1]): 0.0078 s⁻¹; kon (Insulin receptor [1]): 9000 M⁻¹ s⁻¹; receptor binding affinity (KD) relative to native human insulin (Insulin receptor [1]): 5.9%; Kd (Insulin receptor [2]): 862 nM; ka relative to native human insulin (Insulin receptor [2]): 4.3%; kd relative to native human insulin (Insulin receptor [2]): 76.5%; koff (Insulin receptor [2]): 0.0074 s⁻¹; kon (Insulin receptor [2]): 9000 M⁻¹ s⁻¹; receptor binding affinity (KD) relative to native human insulin (Insulin receptor [2]): 5.9%; Kd (Insulin receptor [3]): 1140 nM; ka relative to native human insulin (Insulin receptor [3]): 2.1%; kd relative to native human insulin (Insulin receptor [3]): 56.1%; koff (Insulin receptor [3]): 0.0069 s⁻¹; receptor binding affinity (KD) relative to native human insulin (Insulin receptor [3]): 3.7%; Kd (Insulin receptor [4]): 1240 nM; ka relative to native human insulin (Insulin receptor [4]): 2.7%; kd relative to native human insulin (Insulin receptor [4]): 54.5%; koff (Insulin receptor [4]): 0.00585 s⁻¹; kon (Insulin receptor [4]): 5000 M⁻¹ s⁻¹; receptor binding affinity (KD) relative to native human insulin (Insulin receptor [4]): 5.1%
